# From article PMC12089306
# Biological target: TEAD4 (UniProt Q15561)
# Assay: co-immunoprecipitation
# Details: reference: wild type SP1
substance,measurement,setting,value
SP1 (from UniProt P08047) S670 single mutant,binding against the reference,sites S670,weaker
SP1 (from UniProt P08047) T668 single mutant,binding against the reference,sites T668,weaker
SP1 (from UniProt P08047) T681 single mutant,binding against the reference,sites T681,weaker
